# Reference: patent US20050112108
# Biological target: GAAP-1 (Homo sapiens) (UniProt P15822)
# Assay: cell_activity
# Settings: luciferase vs empty vector
# GAAP-1 (Homo sapiens), sequence (P15822 other isoform, or with tags, fused parts or gaps): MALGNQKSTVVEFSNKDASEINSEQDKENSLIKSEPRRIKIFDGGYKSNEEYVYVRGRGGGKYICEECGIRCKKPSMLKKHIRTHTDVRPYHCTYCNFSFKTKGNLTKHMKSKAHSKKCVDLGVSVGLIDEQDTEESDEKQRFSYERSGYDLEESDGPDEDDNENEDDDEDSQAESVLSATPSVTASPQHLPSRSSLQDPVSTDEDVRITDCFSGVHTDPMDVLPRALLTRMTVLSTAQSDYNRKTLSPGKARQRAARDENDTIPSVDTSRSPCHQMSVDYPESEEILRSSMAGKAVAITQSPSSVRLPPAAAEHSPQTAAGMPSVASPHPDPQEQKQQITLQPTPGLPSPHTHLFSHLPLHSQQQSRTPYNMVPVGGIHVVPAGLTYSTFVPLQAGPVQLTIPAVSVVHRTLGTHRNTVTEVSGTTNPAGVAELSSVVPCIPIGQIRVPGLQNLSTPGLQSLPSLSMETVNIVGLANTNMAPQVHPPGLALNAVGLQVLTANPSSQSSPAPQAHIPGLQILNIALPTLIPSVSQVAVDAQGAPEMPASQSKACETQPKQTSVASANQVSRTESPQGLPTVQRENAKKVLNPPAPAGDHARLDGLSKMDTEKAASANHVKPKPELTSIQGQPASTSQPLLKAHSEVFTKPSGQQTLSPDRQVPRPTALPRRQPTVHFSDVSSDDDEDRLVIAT
Substance,activity [fold],"activity (K562 in text, U937 in figure legend) [fold]"
IPCS-SV40 chimeric promoter,2.5,–
IRF1 promoter luciferase,2.5,–
p53 promoter luciferase,–,2.5
